# According to patent publication US20170247459A1, “COMBINATION THERAPY OF ANTIBODIES AGAINST HUMAN CSF-1R AND USES THEREOF” (HOFFMANN-LA ROCHE INC., priority 2012, published 2017):
# Columns and labels:
# Experiment in all cases: cell-based or functional assay
# [1] = target: human mutant CSF-1R L301S Y969F, full-length, on NIH 3T3 cells (human) (UniProt P07333)
# [2] = target: human wildtype CSF-1R (wt CSF-1R), full-length, on cells (human) (UniProt P07333)
# [3] = target: CSF-1R on cynomolgous monocytes (cynomolgous)
Substance,"Mutant CSF-1R IC30 (cell viability, 3D spheroids, CellTiterGlo) [1] [µg/mL]","Mutant CSF-1R IC50 (cell viability, 3D spheroids, CellTiterGlo) [1] [µg/mL]","wtCSF-1R IC30 (cell viability, 3D spheroids, CellTiterGlo) [2] [µg/mL]","wtCSF-1R IC50 (cell viability, 3D spheroids, CellTiterGlo) [2] [µg/mL]","% inhibition (of survival) = (100%-% survival), cynomolgous monocytes at 5 µg/ml antibody [3] [%]",% survival of cynomolgous monocytes at 5 µg/ml antibody (CellTiterGlo) [3] [%]
"Anti CSF-1R SC 2-4A5 (Santa Cruz Biotechnology, US) (antibody)",2.56,10,16.6,10,69,31
goat polyclonal anti-CSF-1R antibody ab10676 (abcam),> 20,–,14.2,–,–,–
